Laboratory results: paper PMC3070544 (Structure (London, England : 1993), 2011)

Molecular target: the molecule itself
Assay: AUC

B1: mouse E-cadherin EC1-5 ectodomain, wild type (domain or fragment)
chain: DWVIPPISCPENEKGEFPKNLVQIKSNRDKETKVFYSITGQGADKPPVGVFIIERETGWLKVTQPLDREAIAKYILYSHAVSSNGEAVEDPMEIVITVTDQNDNRPEFTQEVFEGSVAEGAVPGTSVMKVSATDADDDVNTYNAAIAYTIVSQDPELPHKNMFTVNRDTGVISVLTSGLDRESYPTYTLVVQAADLQGEGLSTTAKAVITVKDINDNAPVFNPSTYQGQVPENEVNARIATLKVTDDDAPNTPAWKAVYTVVNDPDQQFVVVTDPTTNDGILKTAKGLDFEAKQQYILHVRVENEEPFEGSLVPSTATVTVDVVDVNEAPIFMPAERRVEVPEDFGVGQEITSYTAREPDTFMDQKITYRIWRDTANWLEINPETGAIFTRAEMDREDAEHVKNSTYVALIIATDDGSPIATGTGTLLLVLLDVNDNAPIPEPRNMQFCQRNPQPHIITILDPDLPPNTSPFTAELTHGASVNWTIEYNDAAQESLILQPRKDLEIGEYKIHLKLADNQNKDQVTTLDVHVCDCEGTVNNCMKA
modifications: O-linked glycosylation observed in the structure
Protein B1 has a Kd of about 100 µM.
